Earlier results on one substance are cited in publication PMC5075240.

The data set concerns the target calmodulin (UniProt P0DP23).

Consider “TRPV1 C-terminal fragment 767-801 (from UniProt O35433)”, for which the dissociation constant Kd was 50 nM.
